Laboratory results reported in the nanobody polyreactivity screen of Harvey et al. (2022).

assay: yeast display, Sf9 membrane polyspecificity reagent, FACS + sequencing; frameworks hold sequencing errors
In short: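 Nanobodies from a synthetic yeast display library (Saccharomyces cerevisiae BJ5465), induced 36–48 hours with galactose, were stained 1 hour at 4 °C with 10% biotinylated, detergent-solubilized Sf9 membrane reagent, enriched on streptavidin microbeads, then FACS-sorted. Anti-HA (expression) and streptavidin (reagent binding) fluorescence set low and high (top ~1%) gates. Polyreactivity labels come from the gate of origin. Genes were colony-PCR amplified, MiSeq 2 × 250 sequenced and filtered by CDR length.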

| Sequence | polyreactivity (PSR sort gate) |
| --- | --- |
| QVQLVESGGGLVQAGGSLRLSCAASGIIFYFYAMGWYRQAPGKERELVAAITSGGSTNYADSVKGRFTISRDNAKNTVYLQMNSLKPEDTAVYYCAADRDYYFFRYDYWGQGTQVTVSS | low polyreactivity |
| QVQLVESGGGLVQAGGSLRLSCAASGGTFSVYAMGWYRQAPGKEREFVASITYGGGITYYADSVKGRFTISRDNAKNTVYLQMNSLKPEDTAVYYCAVDRRVLWYDMDYWGQGTQVTVSS | high polyreactivity |
| QVQLVESGGGLVQAGGSLRLSCAASGSTFAYYMGWYRQAPGKERELVASISTYYADSVKGRFTISRDNAKNTVYLQMNSLKPEDTAVYYCNKAYYYVFTNYSTALAGDWGQGTQVTVSS | low polyreactivity |
| QVQLVDSGGGLVHAGGRLGLSREDYGSTFPYYSMGWYRQAPGKERELVAAISGGGGSTYYADSVKGRFTISRDNAKNTVYLQMNSLKPEDSAVYYCNAYKYISPGDYWGQGTQVTVSS | high polyreactivity |
| QVQLVESGGGLVQAGGSLRLSCAASGLIFIAYAMRWYRQAPGKERELVAAISSSGGSTYYADSVKGRFTISRDNAKNTVYLQMNSLKPEDTAVYYCAADRYAWGTGRYGYWGQGTQVTVSS | low polyreactivity |
| QVQLVESGGGLVQAGGSLRLSCAASGSIFNRYAMGWSRQAPGKARELVPAISRRGAGTYYADSVKGRFTISRDNAKHTVYLQMNSLKPDDTAVYYCAAAGYFPTAGSRRAYYYCGQGTQVTVSS | high polyreactivity |
| QVQLEESGGGLVQAGGSLRLSCAASGSTFGFYAMRWYRQAPGKERDLVAAISSAARTYYADSVKGRFTISRDNAKNTVYLQMNSLKPADTAVYYCSAEAYHWTSYIGYGGVYYWGQGTQVTGSS | low polyreactivity |
| QVQLVESGGGLVQAGGSLRLRCAASGSIFVVNAMGWYRPAPGKERELVAAISWSDTTTYYADSVKARFTISRDNAKNTVYLQMNSLKPEDTAVYYCAAGFVIKYDYWGQGTQVTVSS | low polyreactivity |
| QVQLVESGGGLDQAGGSLRLSCAASGRTFGGYAMGWYRQAPGKERELVARISRSGGSTYYADSVKGRFTISRDNAKNTVYFQMNSLKPEDTAVYYCNTGLRTAYGWPQDDYWGQGTQVTVSS | low polyreactivity |
| QVQLVESGGGLVQAVGSLRLSCAASGYTFVIYAMGWYRQAPGKERELVAAITTIGGRTYYADSVKGRFTISRDNAKNTVYLQMISLKPEDTAVYYCAADIRSNRLYDGGYWGLGTQVTVSS | low polyreactivity |
| QVQLVESGGGLVQAGGSLRLICAASGSTFYRYAMGWYRQAPGKERELVAAISSSGGSTYYADSVKGRFTISRDIAKNTVYLQMNSLKPEDTAVYYCNRYGSGHSFIYDYWGQGTQVTLSS | high polyreactivity |
| QGQLVESGGGIVQAGGSLRLSCSASGLTYGTNAKGLYRQAPRQERELVAAISRSGGTTYYADSVKWRFTISRDNAKNTVDLQMNSLKPEDTAVYYCATRPYSPWRHYFWGQGTQVTVSS | high polyreactivity |
| QVQIVESGGGLVQAGGSLRLSCAASGSIFRRYAMGWYRQEPGKERELVAAISSNGGSTYNADSVKGRFTISRDNAKNTVYLQMNSLKPEDTAVYYCNAPPLYRDEYWGQGTQVSVSS | high polyreactivity |
| QVQIVESGGRIVQAGGSLRLSCAASGSTFGWYTMGWYRQSPGKESELVATISWRGGTTYYADSVKGRFTISRDNAKNTVYLQMNSLKPEDTAVYYCAARRYRASSRGYGYWGQGTQVTVSS | high polyreactivity |
| QVLLVESGGGLVQAGGSLRLSCAASGITFAYYVMGWYRQAPGKERELVAAINWSGGSTYYADSVKGRFTISRDNAKNTVYLQMNSLKPEDPAVYYCAADWSTWYGEKFYWGQGTQVTVSS | high polyreactivity |
| QVQLVESGGGLVQAGGSLRLSCDASGFILYYNAMGWYRQAPGKEREMVAAITSGGGGTYYADSVKGRFTNSRDNAKNTVYFQMNSLNPEDTAVYYCNTRFGYRGGVDFDYWGQGTQVTVSS | high polyreactivity |
| QVQLVESGGGLVQAGGSLRLSCAASGSTFDIYAMGWYRQAPGKERKLVAVISGGDGSTYYADSVKGRFTISRDNAKNTVYLQMNSLKPEDTAVYYCEYDYWGQGTQVTVSS | low polyreactivity |
| QVQLVESGGGLVQAGGSLRLSCAASGRTIIYNTMGWSRQAPGKEREFVAAINWSGGSTYYADSVKGCFTISRDNAKNTVYLQMNSLKPEDTAVYYCNAEAGYYRPLIYDYWGQGTQVTVSS | low polyreactivity |
| QVQLVESGGGLVQAGGSLRLTCAASVSIFPHYTMGWYRPAPGKERELVDAISNYGSSTYYADSVKGRFTISRDNAKNTVYLQMNSLKPEDSEVYYCNADDYGYSPGVNYWGQGTQVTVSS | low polyreactivity |
| QVQLVESGGGLVQAGGSLRLSCAASGFIFNAYPMGWYRPAPGKERELVAAISSSGGRTYYADSVKGRFTISRDNAKNTVYLHMNSLKPEDTAVYYCNADKNSIIKLRGYYYWGQGTQVTVSS | high polyreactivity |
| QVQLVESGGGLVQAGGSLRLSCAASGFTFPEYTMGWYRQAPGKERELVAAISWSGGSTYYADSVKGRFTISRDNAKNSVYLQMNSLKPEDTAVYYCNWKRGYGYWGQGTQVTVSS | high polyreactivity |
| QVQLVESGGGLVQAGGSLRLSCAASGRTFTEYAMGWYRQAPGKERELGAGIDSGSGSTYYADSVKGRFTISRDYAKNTVYLQMNSLHPEDTAVYYCAARDVWSPYDTDVDYWGQGTQVTVSS | low polyreactivity |

| Sequence | polyreactivity (PSR sort gate) |
| --- | --- |
| QVKLVESAVGLVQAGGSLRLSCAASGRTFCSYAMGWYRQAPGKERELVAAISRGGSRTYYADSVKGRFTISRDNAKNTVYLQMNSLKPEDTAVYYCAADPTASGHFLGQVDYWGQGTQVTVSS | high polyreactivity |
| QVQLVESGGGLVHAGGSLRLSCAASGSTFLPNVMGWYRQAPGTERELVAANSSRGGRTYYADSVKGRFTISRDNAKNTVYLQMNSLKPEDTAVYYCAAYTRDTTGSAGIYRDDYWGQGTQVTVSS | high polyreactivity |
| QVQLVESGGGLVQAGGSLLLSCAASGRIFRSYTMGWYRQAPGKERELVAAITSYGGRTYYADSVKGRFTISRDNAKNTVYLQMNRLKPEDTAVYYCAAHLSRDKFDYWGQGTQVTVSS | low polyreactivity |
| QVQLVESGGGLVQAGGSLRLSCAASGSTFGIYAMGWYRQAPGKERELVAAISRSGDSTYYADSVKGRFTISRDNAKNTVYLQMNSLKPEDTAVYYCAADSFRLRYWAVTTHRVQYDYWGQGTQVTVSS | low polyreactivity |
| QVQLVESGGGLVQAGGSLRLSCAASGRIFSSYAMGWYRQAPGKERELVAAISRGGGRTYYADSVKGRFTISRDNAKNTVYLQMNSLKPEDTAVYYCATVVRSAAYAFDYWGQGTQVTVSS | high polyreactivity |
| QVQLVESGGGLVQAGGSLRLSCAASGLIFYGNAMGWYRQEPGKERELVAAISWSGGNTSYADSVKGRFTISRDNAKNTVYLQMNSLKPEVTAVYYCNADSLPSVERYGYWGQGTQVTVSS | low polyreactivity |
| QVQLVESGGGLVQAGGSLRLSCAASGSTFYYYAMGWYRQAPGKERELVAVITFSGGSTNYADSVKGRFTISRDNAKNTVYLQMNSLKPEDTAVYYCAADTYSYRYSNDYWGQGTQVTVSS | low polyreactivity |
| QVQLVESGGGLVQAGGSLRLSSAASGRTFDFYAMGWYRQAPGKERELVAAITGSDTSTYYADSVKGRFTISRDNAKNTVYLQMNSLKPEDTAVYYCAADGQWAYTVDPYVIYYRLDYWGQGTQVTVSS | low polyreactivity |
| QVQLVESGGGLVQAGGSLRLSCAASGSISYPYDMGWYRQAPGKDRELVAAISGSGGRTYYADSLKGRFTLSRDTAKNTVYLQMNSLKPEVTAVYYCAAERGAYRGVTFTYGYWGQGTQVTVSS | high polyreactivity |
| QVQHVESGGRLVQAGGSLRLSWAASGRIFRVNAMGRYRQAPGKERELVAAINFSGTSTYFADSVKGRFTISRDNAKNTVYLQMNSLKPDDTAVYYCNALTTSNSGRFYYWGQGTQVTVSS | low polyreactivity |
| QVQLVESGGGLVQAGGSLRLSCAASGRTFAFYGMGWYRQAPGKERELVATIRGTGGSTYYADSVKGRFTISRDNAKNTVYLQMNSLKPEDTAVYYCNKYLGIQVGSVPHDYWGQGSQVTVSS | high polyreactivity |
| QVQLVESGAGLVQAGGSLRLICAASGSTFVKNVMGCYRQAPGKERELVAGITRGGSTYYADSVKGRFTISRDHAKNSVYLQMNSLYPDDTAVYYWAKRYAWELDYWGQGSQVTVSS | high polyreactivity |
| QVQLVESGGGLVQAGGSLRLSCAASGFTFGHYAMGWYRPAPGKERELVAAISSGDRTYYADSVKGRFTISRDNAKNTVYLQMNSLKPEDTAVYYCNAVYYSWAQSARFDYWGQGTQVTVSS | low polyreactivity |
| QVQLVESGGGLVQAGGSLRLSCAASGFIFTRYAMGWYRQAPGKERELVAAIRWRGSSTYYADSVKGRFTISRDNAKNTVYLQMNSLKPEDTAVYYCAAQPSRSTYLAPSRDHWGQGTQVTVSS | low polyreactivity |
| QVQLVESGGGLVQAGGSLRLSCAASGSTFSHNAMGWYRQAPGKERELVAAISWSGGRTYADSVKGRFTISRDNAKNTVYLQMNSVKPDDTAVYYCNKVSYPSTSSSWFDYWGQGTQVTVSS | low polyreactivity |
| QVQLVESWGGLVQAGGSLRLSCAASGRIFFVNAMGWYRQAPGKERELVAAITSGGSTSYADSVKGRFTISRDNAKNTVFLQLNSLKAEDTAVYYCAAVFYRRFDYWGQGTQVTVSS | low polyreactivity |
| QVQLVESGGGLVQAGGSLRLSCAASGFIFPRYFMGLYRQAPGKERELVAAINSDISTNYADSVKWRFTISRDNAKNTVYLQMNSLKPEDTAVYYCAADRWDDPWEFDYWGQCTQVTVSS | low polyreactivity |
| QVQLVESGGGLVQAGGSLRLSCAASGSIFVPYAMGWYRQAPGKERELVAAISSGGGRTYYADSVKGRFTIARDNAKNTVYLQMNSLKPEDTAVYYCAARYYIGYGHRTYGYDYWGQGTQVTVSS | high polyreactivity |
| QVQLVESGGGLVQAGGSLRLSCAASGGTFWYYAMGWDRQAPGKERELVAAINWSGDSTYADSVKGRFTISRDNAKNTVYLQMNSLKPEDTAVYYCNADVWYYRMDYWGQGTQVTVSS | low polyreactivity |
| QVQLVESGGGLVQAGGSLRLSCAASGSTFFFNAMGWYRQAPGKERELVAAITGRSGSTYYADSVKGRFTISRDNAKNTVYLQMNSLKPEDTAVYYCAADFSPWRSDFDYWGQGTQVTVTS | low polyreactivity |
| QVQLVESGGGLVQAGGSLRLSCAASGITFNSYVMGWYRQAPGKERELVAAIRWSGGRTYYADSVKGRFTISRDNAKNTVYLQMNSLKPEDTAVYYCNRVTRSHVDYWGQGTQVTVSS | high polyreactivity |
